The target in this assay is Vairimorpha necatrix 20S proteasome core particle (Vairimorpha necatrix (endogenous in spores)). As to the kind of experiment: cryo-EM structure.

“Vairimorpha necatrix 19S regulatory particle (complex)” gave a percent of proteasome particles capped by RP of 12%.

The values are drawn from article doi:10.1101/2022.07.11.499521.
